In patent US7262024:

Legend:
[1] = target: Mouse serum rVP56-QuilA (mouse 1); test: flow cytometry, inhibition of surface labeling by serum rVP56-QuilA (mouse 1)
[2] = target: Mouse serum rVP147-QuilA (mouse 2); test: flow cytometry, inhibition of surface labeling by serum rVP147-QuilA (mouse 2)
[3] = target: Mouse serum rVP147-AlOH (mouse 2); test: flow cytometry, inhibition of surface labeling by serum rVP147-AlOH (mouse 2)
[4] = target: Mouse serum rVP147-QuilA (mouse 1); test: flow cytometry, inhibition of surface labeling by serum rVP147-QuilA (mouse 1)
[5] = target: Mouse serum rVP147-AlOH (mouse 1); test: flow cytometry, inhibition of surface labeling by serum rVP147-AlOH (mouse 1)
[6] = target: Mouse serum rVP56-AlOH (mouse 1); test: flow cytometry, inhibition of surface labeling by serum rVP56-AlOH (mouse 1)
[7] = target: Mouse serum rVP56-QuilA (mouse 2); test: flow cytometry, inhibition of surface labeling by serum rVP56-QuilA (mouse 2)
[8] = target: Mouse serum rVP56-AlOH (mouse 2); test: flow cytometry, inhibition of surface labeling by serum rVP56-AlOH (mouse 2)

Binder	% inhibition [1] [%]	% inhibition [2] [%]	% inhibition [3] [%]	% inhibition [4] [%]	% inhibition [5] [%]	% inhibition [6] [%]	% inhibition [7] [%]	% inhibition [8] [%]
VP56 (protein) MQIGQPTLPNNSLATPSPSLPINPGTSHEKHEEDGYGFDANRIIAEDESGFVMSHGDSNHYFFKKDLTEEQIKAAQKHLEEVKTSHNGLDSLSSHEQDYPGNAKEMKDLDKKIEEKIAGIMKQYGVKRESIVVNKEKNAIIYPSGDHHHADPIDEHKPVGIGHSHSNYELFKPEEGVAKKEGNKVYTGEELTNVVNLLKNSTFNNQNFTLANGQKRVSFSFPPELEKKLGINMLVKLITPDGKVLEKVSGKVFGEGVGNIANFELDQPYLPGQTFKYTIASKDYPEVSYDGTFTVPTSLAYKMASQTIFYPFHAGDTYLRVNPQFAVPKGTDALVRVFDEFHGNAYLENNYKVGEIKLPIPKLNQGTTRTAGNKIPVTFMANAYLDNQSTYIVEVPILEKENQTDKPSILPQFKRNKAQENSKLDEKVEEPKTSEKVEKEKLSETGNSTSNSTLEEVPTVDPVQEKVAKFAESYGMKLENVLFNMDGTIELYLPSGEVIKKNMADFTGEAPQGNGENKPSENGKVSTGTVENQPTENKPADSLPEAPNEKPVKPENSTDNGMLNPEGNVGSDPMLDPALEEAPAVDPVQEKLEKFTASYGLGLDSVIFNMDGTIELRLPSGEVIKKNLSDFIA	99.7	74.1	61.6	68.1	50	99.7	99.8	100
New 139 (protein) MQITYTDDEIQVAKLAGKYTTEDGYIFDGGWIKKDSLSEAERAAAQAYAKEKGLTPPSTDHQDSGNTEAKGAEAIYNRVKAAKKVPLDRMPYNLQYTVEVKNGSLIIPHHDHYHNIKFEWFDEGLYEAPKGYSLEDLLATVKYYVEGGNASDHVRKNKADQDSKPDEDKEHDEVSEPTHPESDEKENHAGLNPSADNLYKPSTDTEETEEEAEDTTDEAEIPGGPSIRQNAMETLTGLKSSLLLGTKDNNTISAEVDSLLALLKESQPAPIQ	0.2	40.7	49.7	41.3	53.8	0		0
VP147 (protein) MQITYTDDEIQVAKLAGKYTTEDGYIFDGGWIKKDSLSEAERAAAQAYAKEKGLTPPSTDHQDSGNTEAKGAEAIYNRVKAAKKVPLDRMPYNLQYTVEVKNGSLIIPHHDHYHNIKFEWFDEGLYEAPKGYSLEDLLATVKYYVEGGNASDHVRKNKADQDSKPDEDKEHDEVSEPTHPESDEKENHAGLNPSADNLYKPSTDTEETEEEAEDTTDEAEIPGGPSIRQNAMETLTGLKSSLLLGTKDNNTISAEVDSLLALLKESQPAPIQGGQIGQPTLPNNSLATPSPSLPINPGTSHEKHEEDGYGFDANRIIAEDESGFVMSHGDSNHYFFKKDLTEEQIKAAQKHLEEVKTSHNGLDSLSSHEQDYPGNAKEMKDLDKKIEEKIAGIMKQYGVKRESIVVNKEKNAIIYPSGDHHHADPIDEHKPVGIGHSHSNYELFKPEEGVAKKEGNKVYTGEELTNVVNLLKNSTFNNQNFTLANGQKRVSFSFPPELEKKLGINMLVKLITPDGKVLEKVSGKVFGEGVGNIANFELDQPYLPGQTFKYTIASKDYPEVSYDGTFTVPTSLAYKMASQTIFYPFHAGDTYLRVNPQFAVPKGTDALVRVFDEFHGNAYLENNYKVGEIKLPIPKLNQGTTRTAGNKIPVTFMANAYLDNQSTYIVEVPILEKENQTDKPSILPQFKRNKAQENSKLDEKVEEPKTSEKVEKEKLSETGNSTSNSTLEEVPTVDPVQEKVAKFAESYGMKLENVLFNMDGTIELYLPSGEVIKKNMADFTGEAPQGNGENKPSENGKVSTGTVENQPTENKPADSLPEAPNEKPVKPENSTDNGMLNPEGNVGSDPMLDPALEEAPAVDPVQEKLEKFTASYGLGLDSVIFNMDGTIELRLPSGEVIKKNLSDFIA	99.5	99.6	99.8	99.7	99.7	99.6	99.3	100
